Test results: patent US6656735, “Method for identification of target genes of transcription factors” (GSF Forschungszentrum Fuer Umwelt Und Gesundheit GmbH)

Legend:
[1] = molecular target: T1, Engrailed 2 full length (En2, ChEn2) (Gallus gallus, UniProt Q05917 Q05917:1-289); assay: EMSA; two shifted complexes; 20 mM Tris-HCl pH 7.9, 35 mM KCl, 2.5 mM MgCl2, poly-dIdC, on ice; details: label: 32P
T1 sequence: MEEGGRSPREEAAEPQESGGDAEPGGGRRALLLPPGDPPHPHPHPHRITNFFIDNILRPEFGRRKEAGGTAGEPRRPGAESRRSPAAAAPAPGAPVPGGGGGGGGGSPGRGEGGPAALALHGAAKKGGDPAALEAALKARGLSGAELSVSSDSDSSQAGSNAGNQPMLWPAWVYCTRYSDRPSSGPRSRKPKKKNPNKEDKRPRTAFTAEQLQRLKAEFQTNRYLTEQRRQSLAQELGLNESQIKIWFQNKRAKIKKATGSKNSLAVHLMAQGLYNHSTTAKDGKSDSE

[2] = molecular target: T1, Engrailed 2 full length (En2, ChEn2); assay: EMSA; two shifted complexes; no ATTA core; 20 mM Tris-HCl pH 7.9, 35 mM KCl, 2.5 mM MgCl2, poly-dIdC, on ice; details: label: 32P
[3] = molecular target: T2, EnHD (Engrailed 2 homeodomain, 60 aa) (Gallus gallus, UniProt Q05917 Q05917:200-259); assay: EMSA; four complexes with 10 to 100 ng EnHD; fragment with six NP6 copies; details: tags: E. coli pET-3a, heparin-sepharose purified, no tag stated; label: 32P
T2 sequence: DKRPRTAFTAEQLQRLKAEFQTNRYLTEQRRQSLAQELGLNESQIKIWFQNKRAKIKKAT
Procedure: FIGS. 2A, 2B and 2C: Bacterially produced EnHD binds DNA and is efficiently internalized into cells in culture. (A) Polyacrylamide gel electrophoresis is of EnHD purified from *E. coli* extracts (Coomassie staining). (B) Band shift assay, performed by incubating 0.5 ng ^32P-ATP-labeled NP6 oligonucleotides with increasing amounts (0, 10, 20, 50 and 100 ng) of purified EnHD. (C) ES cells (upper Pannels) or GMA24FIA (lower Pannels) were incubated for 2 hrs. with FITC-EnHD (300 ng/ml) (left) or FITC alone (right).
The protocol described in FIG. 1 requires the EnHD added to the culture medium to be internalized by a large number of ES cells. EnHD was produced in E. coli and purified on heparin sepharose. […] To test the binding properties of EnHD, gel shift experiments were performed using a DNA fragment containing six copies of the NP6 site (TCAATTAAAT) (SEQ ID NO:3) known to bind Drosophila Engrailed.

B1: BPAG1e promoter oligonucleotide -2225 to -2180 (dsDNA)
DNA 1: CTCAAATAATTAGTCATTAAAAAAAATAAAGGCATATGAGCCAGCCT
DNA 2: AGGCTGGCTCATATGCCTTTATTTTTTTTAATGACTAATTATTTGAG
Question: Does B1 bind [1]?
Answer: Result: binds

B2: BPAG1e promoter oligonucleotide -694 to -665 (dsDNA)
DNA 1: CGCAGAATATTGGCTCAGTAACTAAGTGTG
DNA 2: CACACTTAGTTACTGAGCCAATATTCTGCG
Question: Does B2 bind [2]?
Answer: Result: binds

B3: NP6 site, six copies (dsDNA)
DNA 1: TCAATTAAAT
DNA 2: ATTTAATTGA
Question: Does B3 bind [3]?
Answer: Result: binds
